Results on eight substances are retold here after PMC9484259.

Experiment in all cases: BLI; Forte Bio Octet; biotinylated Mm IgG or Fc captured on streptavidin SAX 2.0 tips, FcγRIII in solution in 3-fold serial dilutions (10 mM to 0.013 mM [sic]), PBST (0.05% Tween-PBS), 300 s association and 300 s dissociation; KD from equilibrium fits, average of two independent experiments; the footnote of Table 1 says SPR
On the technique in general: BLI is a label-free optical method that tracks binding on a fibre tip over time.

In experiment [1] the target is Fc of Mm IgG2 (Macaca mulatta (rhesus macaque)).
In experiment [2] the target is macaque immunoglobulin IgG1 Fc (residues 237-447) (Macaca mulatta (rhesus macaque)).
The target in experiment [3] is Fc of Mm IgG3 (Macaca mulatta (rhesus macaque)).
In experiment [4] the target is Mm IgG3 (Macaca mulatta (rhesus macaque)).
The target of experiment [5] is Mm IgG1 (Macaca mulatta (rhesus macaque)).
For experiment [6], the target named is Mm IgG4 (Macaca mulatta (rhesus macaque)).
Experiment [7] has as its target Fc of Mm IgG4 (Macaca mulatta (rhesus macaque)).
Experiment [8] has as its target Mm IgG2 (Macaca mulatta (rhesus macaque)).

As a reminder, the Kd is the constant that tells how readily two partners part at equilibrium. Low readings indicate a tighter complex, high ones a looser complex. Regarding “Mm FcγRIII(Ile^158), fully glycosylated, Man5 glycans (from UniProt A3RFZ7 21-206) (receptor)”, the Kd was found to be 150 nM in experiment [1]; 210 nM in experiment [2]; 290 nM in experiment [3]; 1900 nM in experiment [4]; 220 nM in experiment [5]; 490 nM in experiment [6]. Further, the Kd in experiment [7] worked out at 1100 nM; in experiment [8], 1500 nM.

For “Mm FcγRIII(Ile^158), fully glycosylated, complex glycans (from UniProt A3RFZ7 21-206) (receptor)”, the Kd was 230 nM in experiment [1]; 250 nM in experiment [2]; 400 nM in experiment [3]; 1900 nM in experiment [4]; 260 nM in experiment [5]; 980 nM in experiment [6]. Further, the Kd in experiment [7] and in experiment [8] was 1800 nM each time.

As to “Mm FcγRIII(Ile^158), partial glycosylation (Asn^38 and Asn^169 glycans removed), Man5 glycans (receptor)”, the Kd worked out at 1500 nM in experiment [1]; 60 nM in experiment [2]; 160 nM in experiment [3]; 3000 nM in experiment [4]; 280 nM in experiment [5]; 1700 nM in experiment [6]. For the same substance, the Kd in experiment [7] was determined as 1900 nM; in experiment [8], 2800 nM.

For the substance “Mm FcγRIII(Ile^158), partial glycosylation (Asn^38 and Asn^169 glycans removed), complex glycans (receptor)”, the Kd was found to be 1600 nM in experiment [1]; 120 nM in experiment [2]; 230 nM in experiment [3]; 2800 nM in experiment [4]; 340 nM in experiment [5]; 2300 nM in experiment [6]. The Kd in experiment [7] turned out to be 2200 nM; in experiment [8], 2300 nM.

As to “Mm FcγRIII(Val^158), fully glycosylated, Man5 glycans (receptor)”, the Kd was 80 nM in experiment [1]; 300 nM in experiment [2]; 240 nM in experiment [3]; 2300 nM in experiment [4]; 280 nM in experiment [5]; 300 nM in experiment [6]. For the same substance, the Kd in experiment [7] was found to be 530 nM; in experiment [8], 1800 nM.

Consider “Mm FcγRIII(Val^158), fully glycosylated, complex glycans (receptor)”, for which the Kd in experiment [1] came to 90 nM; in experiment [2], 360 nM; in experiment [3] it was 460 nM; in experiment [4], 3200 nM; in experiment [5], 410 nM; in experiment [6], 570 nM. In addition, the figures for the Kd in experiment [7] and in experiment [8] were 630 nM and 2100 nM, respectively.

In the case of “Mm FcγRIII(Val^158), partial glycosylation (Asn^38 and Asn^169 glycans removed), Man5 glycans (receptor)”, the Kd was 610 nM in experiment [1]; 10 nM in experiment [2]; 280 nM in experiment [3]; 4800 nM in experiment [4]; 290 nM in experiment [5]; 2200 nM in experiment [6]. The Kd in experiment [7] was 850 nM; in experiment [8], 2200 nM.

Take “Mm FcγRIII(Val^158), partial glycosylation (Asn^38 and Asn^169 glycans removed), complex glycans (receptor)”: the Kd turned out to be 1200 nM in experiment [1]; 30 nM in experiment [2]; 250 nM in experiment [3]; 4200 nM in experiment [4]; 460 nM in experiment [5]; 3000 nM in experiment [6]. Further, the Kd was determined as 1000 nM in experiment [7] and 2600 nM in experiment [8].
